According to patent US20060040319A1, “Multiple sensor-containing active modified polypeptides, preparation and uses thereof” (priority 2000, published 2006):
“Also recorded” adds a separate entry of the source.

Experiments:
[1] = molecular target: T1, GST fusion of mouse c-Abl containing only the SH2 and kinase domains (Mus musculus, UniProt P00520); assay: Kinase assay with truncated c-Abl containing only the SH2 and kinase domains; format: biochemical; conditions: truncated c-Abl (SH2 and kinase domains only), over 60 min
T1 construct: a GST fusion of mouse c-Abl containing only the SH2 and kinase domains; made in house; host or cells: E. coli BL21
T1 sequence (P00520 127-493): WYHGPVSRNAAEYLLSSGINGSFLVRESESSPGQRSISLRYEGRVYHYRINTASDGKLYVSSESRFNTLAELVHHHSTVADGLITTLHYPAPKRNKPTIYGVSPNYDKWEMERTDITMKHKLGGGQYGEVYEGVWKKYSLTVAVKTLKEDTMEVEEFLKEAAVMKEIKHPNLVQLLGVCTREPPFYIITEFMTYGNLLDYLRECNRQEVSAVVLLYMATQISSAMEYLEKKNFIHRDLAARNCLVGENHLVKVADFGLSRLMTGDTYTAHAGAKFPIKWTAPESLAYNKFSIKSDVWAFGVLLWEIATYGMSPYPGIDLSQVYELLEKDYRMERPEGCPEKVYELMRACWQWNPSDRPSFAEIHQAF
Method: Purified Rh-(Crk-II)-Fl prepared as described in Example I was treated with either full length recombinant (Baculovirus/SF9) mouse c-Abl or a GST fusion of mouse c-Abl containing only the SH2 and kinase domains (expressed in E. coli BL21 essentially as described (19)). In a typical experiment, the appropriate c-Abl construct was incubated in reaction buffer (2 mM DTT, 0.2 mg/ml BSA, 10 mM Mg^2+, 50 mM Tris, pH 7.4, either with or without ATP (500 μM)) for 5 min at 30° C. before addition of Rh-(Crk-II)-Fl (final concentration=0.25 μM). In order to ensure that equal amounts of active c-Abl enzyme were added to each reaction, preliminary titration experiments were carried out using an optimized peptide substrate for c-Abl (EAIYAAPFAKKK (SEQ ID No:2) (20)). […] In all cases, aliquots of the reaction mixtures were removed at ˜1 min and 60 min, quenched with EDTA (final conc.=40 mM), and then analyzed by native-PAGE and/or Western blotting and fluorescence spectroscopy. […]
Fluorescence Spectroscopy. […] Excitation was at 490 nm with a 2.5 nm slit and the fluorescence emission was monitored at 520 nm and 580 nm through a 4 nm slit. […] Rh-(Crk-II)-Fl was treated with full length recombinant c-Abl and aliquots of the reaction mixture were analyzed by fluorescence spectroscopy and western blotting at ˜1 min and 60 min time-points. […]

[2] = molecular target: T2, full length recombinant c-Abl (Mus musculus, UniProt P00520); assay: Kinase assay: phosphorylation of Rh-(Crk-II)-Fl by full length c-Abl (FRET, western blot, native PAGE); format: biochemical
T2 construct: full length recombinant (Baculovirus/SF9) mouse c-Abl; made in house; host or cells: Baculovirus/SF9
Method: Purified Rh-(Crk-II)-Fl prepared as described in Example I was treated with either full length recombinant (Baculovirus/SF9) mouse c-Abl or a GST fusion of mouse c-Abl containing only the SH2 and kinase domains (expressed in E. coli BL21 essentially as described (19)). In a typical experiment, the appropriate c-Abl construct was incubated in reaction buffer (2 mM DTT, 0.2 mg/ml BSA, 10 mM Mg^2+, 50 mM Tris, pH 7.4, either with or without ATP (500 μM)) for 5 min at 30° C. before addition of Rh-(Crk-II)-Fl (final concentration=0.25 μM). In order to ensure that equal amounts of active c-Abl enzyme were added to each reaction, preliminary titration experiments were carried out using an optimized peptide substrate for c-Abl (EAIYAAPFAKKK (SEQ ID No:2) (20)). For peptide inhibition studies, Rh-(Crk-II)-Fl was pre-incubated for 30 min with a high affinity ligand for the N-SH3 domain of Crk, PPPALPPKRRR-NH2 (SEQ ID No:7) (21), such that the final concentration of ligand in the kinase assay was 12 μM. In all cases, aliquots of the reaction mixtures were removed at ˜1 min and 60 min, quenched with EDTA (final conc.=40 mM), and then analyzed by native-PAGE and/or Western blotting and fluorescence spectroscopy.
Western Blotting. Standard procedures were used to probe for tyrosine phosphorylation using a mouse monoclonal anti-phosphotyrosine primary antibody (PY20, Santa Cruz Biotechnology) and a HPO-conjugated goat anti-mouse polyclonal secondary antibody (Amersham Pharmacia).
Fluorescence Spectroscopy. Experiments were conducted at 18° C. in a stirred 0.5 cm-pathlength cell using a SPEX FL3-11C fluorimeter. Samples from the reactions (50 μl) were diluted into 2 mM DTT, 0.4 mg/mL BSA, 140 mM NaCl, 50 mM Tris, pH 7.4 buffer (450 μl) for analysis. Excitation was at 490 nm with a 2.5 nm slit and the fluorescence emission was monitored at 520 nm and 580 nm through a 4 nm slit. Purified Rh-(Crk-II)-Fl was assayed for its ability to biosense Crk-II phosphorylation by the c-Abl protein tyrosine kinase. As indicated previously, phosphorylation by c-Abl leads to an intramolecular association between a phosphotyrosine motif and the Crk-II SH2 domain, which could potentially be reported by the dual-labeled Crk-II derivative (FIG. 1). Rh-(Crk-II)-Fl was treated with full length recombinant c-Abl and aliquots of the reaction mixture were analyzed by fluorescence spectroscopy and western blotting at ˜1 min and 60 min time-points. […] In contrast, when ATP was included in the reaction mixture, a phosphorylation-dependent increase in the emission intensity ratio (a decrease in FRET) was consistently observed.

T2 sequence (P00520 whole entry): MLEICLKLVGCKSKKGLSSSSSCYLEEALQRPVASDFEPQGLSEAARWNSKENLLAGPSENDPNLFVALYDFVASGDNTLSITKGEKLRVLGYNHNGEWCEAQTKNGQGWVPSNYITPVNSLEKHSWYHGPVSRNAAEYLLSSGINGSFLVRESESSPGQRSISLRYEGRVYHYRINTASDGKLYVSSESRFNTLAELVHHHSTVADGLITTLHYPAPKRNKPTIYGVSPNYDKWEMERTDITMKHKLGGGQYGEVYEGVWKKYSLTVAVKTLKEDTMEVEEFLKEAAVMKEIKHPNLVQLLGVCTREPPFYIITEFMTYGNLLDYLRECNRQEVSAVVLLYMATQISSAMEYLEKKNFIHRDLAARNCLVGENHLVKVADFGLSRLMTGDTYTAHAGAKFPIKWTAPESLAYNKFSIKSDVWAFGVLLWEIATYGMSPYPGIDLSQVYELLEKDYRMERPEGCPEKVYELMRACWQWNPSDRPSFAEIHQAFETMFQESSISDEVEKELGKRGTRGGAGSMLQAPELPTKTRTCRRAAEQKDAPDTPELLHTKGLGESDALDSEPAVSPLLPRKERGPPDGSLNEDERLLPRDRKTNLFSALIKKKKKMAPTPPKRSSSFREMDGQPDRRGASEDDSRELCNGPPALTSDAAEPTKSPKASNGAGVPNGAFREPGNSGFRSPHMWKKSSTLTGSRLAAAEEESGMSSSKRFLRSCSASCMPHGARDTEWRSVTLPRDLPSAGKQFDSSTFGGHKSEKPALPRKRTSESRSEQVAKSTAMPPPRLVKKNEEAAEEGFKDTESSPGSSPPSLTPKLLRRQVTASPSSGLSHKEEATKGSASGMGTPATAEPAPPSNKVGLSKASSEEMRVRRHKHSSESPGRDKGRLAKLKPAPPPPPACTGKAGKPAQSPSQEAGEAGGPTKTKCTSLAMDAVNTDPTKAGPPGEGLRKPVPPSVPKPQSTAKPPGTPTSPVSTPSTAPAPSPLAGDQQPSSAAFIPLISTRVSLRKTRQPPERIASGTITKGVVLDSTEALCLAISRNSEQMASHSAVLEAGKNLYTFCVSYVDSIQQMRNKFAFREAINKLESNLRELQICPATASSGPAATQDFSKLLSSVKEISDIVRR

B1: Rh-(Crk-II)-Fl: semi-synthetic mouse Crk-II adapter protein with tetramethylrhodamine and fluorescein FRET pair at the N- and C-termini (protein)
chain: KRGCAGNFDSEERSSWYWGRLSRQEAVALLQGQRHGVFLVRDSSTSPGDYVLSVSENSRVSHYIINSSGPRPPVPPSPAQPPPGVSPSRLRIGDQEFDSLPALLEFYKIHYLDTTTLIEPVARSRQGSGVILRQEEAEYVRALFDFNGNDEEDLPFKKGDILRIRDKPEEQWWNAEDSEGKRGMIPVPYVEKYRPASASVSALIGGNQEGSHPQPLGGPEPGPYAQPSVNTPLPNLQNGPIYARVIQKRVPNAYDKTALALEVGELVKVTKINVSGQWEGECNGKRGHFPFTHVRLLDQQNPDEDFSGCGXGLEVLFQ
modifications: not fully specified; tetramethylrhodamine N-terminal, fluorescein C-terminal; Protein Kinase Target
notes: semi-synthetic mouse Crk-II adapter protein with tetramethylrhodamine and fluorescein FRET pair at the N- and C-termini
- phosphorylation by fluorescence and western blotting analysis [1]: did not lead to any detectable phosphorylation; also recorded: complete lack of phosphorylation
- change in FRET ([2]; absence of ATP): essentially no change in FRET
- phosphorylation detected with anti-phosphotyrosine monoclonal antibody (western) ([2]; absence of ATP): no Rh-(Crk-II)-Fl phosphorylation could be detected
- extent of phosphorylation by native PAGE mobility ([2]; with ATP, after 1 h): completely phosphorylated
- decrease in FRET (increase in Fl:Rh emission intensity ratio) ([2]; with ATP, after 60 min): ~3%
